This data set relates to MS2 coat protein. In words: apparent KD of MS2 coat protein; designed switch direction (-1 OFF switch, 1 ON switch): 1; higher = weaker reporter binding. Summed up:
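For each design, the apparent KD is the median over clusters of curves fitted to normalised cluster fluorescence. Clusters held RNA switches with common flanks, transcribed on Illumina chips by stalled E. coli RNA polymerase. These were titrated with SNAP-549-labelled MS2 coat protein, doubling from 0.7 or 1.5 nM to 3 µM, without input, with 200 uM small-molecule ligand, or with an oligonucleotide input.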

Where [1] appears, read: input ligand: microRNA oligo, concentration not stated.
Where [2] appears, read: Eterna round: R95, input ligand: FMN 200 uM.
The mark [3] stands for this setting: Eterna round: R95, input ligand: microRNA oligo, concentration not stated.
Setting [4] is: Eterna round: R95, input ligand: none.

From the supplement of paper PMC9170038 come the findings set out here.

Turning to “UCAAUCAUGUAAGGAUAUGCAGCCGAAACGGCUGCAGAAGGUACUAUAAUUACAUGAGGAUCACCCAUGUUAUAAAAUUUAUAU [Mat - Same State NG 1 - JL mod - D67] (Eterna round: R96, puzzle: Same State NG 1)”, the “apparent KD of MS2 coat protein” value under setting [1] worked out at 85 nM.

Take “UCGAGCGUACUUGCAGACAUGAGGAUCACCCAUGUAAAUGGGAAGGAUAUGGUACCGUUUCGGUACCAGAAGGUCCUAAGUGAU [salish99_SSNG3_r04_302] (Eterna round: R96, puzzle: Same State NG 3)”: the “apparent KD of MS2 coat protein” value (input ligand: FMN 200 uM) was 574 nM, the “apparent KD of MS2 coat protein” value under setting [1] turned out to be 465 nM and the “apparent KD of MS2 coat protein” value (input ligand: none) is 1200 nM.

For the sequence “UCGGGCGUACUUGCUGACAUGAGGAUCACCCAUGUGAUUGGGAAGGAUAUGGUUCCGUUUCGGUUCCAGAAGGUCCUGGGUGCU [salish99_SSNG3_r04_313] (Eterna round: R96, puzzle: Same State NG 3)”, the “apparent KD of MS2 coat protein” value is, setting by setting: (input ligand: FMN 200 uM) 482 nM; under setting [1], 459 nM; (input ligand: none) 370 nM.

“UCGGGCGUACUUGCUGACAUGAGGAUCACCCAUGUGAUUGGGCAGGAUAUGGUUCCGUUUCGGUUCCAGAAGGUCCUCGGUGCU [salish99_SSNG3_r04_315] (Eterna round: R96, puzzle: Same State NG 3)”: the “apparent KD of MS2 coat protein” value by setting is: (input ligand: FMN 200 uM) 593 nM; under setting [1], 230 nM; (input ligand: none) 347 nM.

For the sequence “UCGGGCGUACUUGCUGACAUGAGGAUCACCCAUGUGUUUGGGAAGGAUAUGGUUCCGUUUCGGUUCCAGAAGGUCCUGGGUGCU [salish99_SSNG3_r04_314] (Eterna round: R96, puzzle: Same State NG 3)”, the “apparent KD of MS2 coat protein” value amounted to 337 nM (input ligand: FMN 200 uM), 254 nM under setting [1] and 246 nM (input ligand: none).

On to “UCUAUUGUGGUAGGAUAUCUAGGAUAUGGGAAGAGCUAAGCUUGGAAGUCACUUCACCCAGAAGGAGAGAAGGACCAGAGACUU [pwkr ssNG2 2FMN + F9.7] (Eterna round: R96, puzzle: Same State NG 2)”, for which the “apparent KD of MS2 coat protein” value is, setting by setting: (input ligand: FMN 200 uM) 1230 nM; under setting [1], 778 nM; (input ligand: none) 475 nM.

As to “UCUGCAAGAACAGGAUAUGGGUUCAGAGCGCGAGUGCGCUUUGACACAUGAGGAUCACCCAUGUCCCAGAAGGGUUCAAGCGGC [Cexezadi] (Eterna round: R96, puzzle: Same State NG 2)”, the “apparent KD of MS2 coat protein” value is, setting by setting: (input ligand: FMN 200 uM) 30 nM; under setting [1], 321 nM; (input ligand: none) 385 nM.

Consider “UCUUGGUUUUUGCUCGUUUUUUGUGUUGAACAUGAGGAUCACCCAUGUAUUGUACAAUCCAGUUUGAUAAUGGUCCG [JR_SHM208A_Sub045] (puzzle: Sensor for hsa-mir-208a)”, for which the “apparent KD of MS2 coat protein” value by setting is: under setting [2], 140 nM; under setting [3], 112 nM; under setting [4], 167 nM.

In the case of “UCUUGGUUUUUGCUCGUUUUUUGUGUUGAACAUGAGGAUCACCCAUGUAUUGUACAGUCCAGUUUAAUAAUGGUCCA [JMF 5] (puzzle: Sensor for hsa-mir-208a)”, the “apparent KD of MS2 coat protein” value runs as follows: under setting [2], 33.9 nM; under setting [3], 24.6 nM; under setting [4], 48.8 nM.

For “UCUUGGUUUUUGCUCGUUUUUUGUGUUGAACAUGAGGAUCACCCAUGUAUUGUACGGUCCAAUUUAAUAAUAAUCCG [JMF 64] (puzzle: Sensor for hsa-mir-208a)”, the “apparent KD of MS2 coat protein” value was 28.8 nM under setting [2], 21.9 nM under setting [3] and 30.6 nM under setting [4].
